Results published in patent US20140030218A1, “Treatment And Screening” (IMPERIAL INNOVATIONS LIMITED, published 2014).

B2: human IRF5 tagged with one-strep tag (N-terminus) and HA tag (C-terminus) (other)
chain: MNQSIPVAPTPPRRVRLKPWLVAQVNSCQYPGLQWVNGEKKLFCIPWRHATRHGPSQDGDNTIFKAWAKETGKYTEGVDEADPAKWKANLRCALNKSRDFRLIYDGPRDMPPQPYKIYEVCSNGPAPTDSQPPEDYSFGAGEEEEEEEELQRMLPSLSLTEDVKWPPTLQPPTLQPPVVLGPPAPDPSPLAPPPGNPAGFRELLSEVLEPGPLPASLPPAGEQLLPDLLISPHMLPLTDLEIKFQYRGRPPRALTISNPHGCRLFYSQLEATQEQVELFGPISLEQVRFPSPEDIPSDKQRFYTNQLLDVLDRGLILQLQGQDLYAIRLCQCKVFWSGPCASAHDSCPNPIQREVKTKLFSLEHFLNELILFQKGQTNTPPPFEIFFCFGEEWPDRKPREKKLITVQVVPVAARLLLEMFSGELSWSADSIRLQISNPDLKDRMVEQFKELHHIWQSQQRLQPVAQAPPGAGLGVGQGPWPMHPAGMQ
notes: Expressed in HEK-293-TLR4-CD14/Md2 cells and purified on Strep-Tactin after formaldehyde cross-linking; also called onestrep-IRF5-HA; IRF5 with an N-terminal one-strep tag and a C-terminal HA tag; not shown: N-terminal one-strep tag; C-terminal HA tag

Columns and labels:
[1] = target: T1, human RelA containing C-terminal FLAG tag (human, UniProt Q04206 1-551); experiment: One-Strep affinity purification from co-transfected HEK293-TLR4-CD14/Md2 cells, Western blot
T1 construct: Expressed in HEK-293 cells; also called RelA-FLAG; Flag-tagged RelA; not shown: C-terminal FLAG tag
T1 sequence (Q04206 other isoform, or with tags, fused parts or gaps): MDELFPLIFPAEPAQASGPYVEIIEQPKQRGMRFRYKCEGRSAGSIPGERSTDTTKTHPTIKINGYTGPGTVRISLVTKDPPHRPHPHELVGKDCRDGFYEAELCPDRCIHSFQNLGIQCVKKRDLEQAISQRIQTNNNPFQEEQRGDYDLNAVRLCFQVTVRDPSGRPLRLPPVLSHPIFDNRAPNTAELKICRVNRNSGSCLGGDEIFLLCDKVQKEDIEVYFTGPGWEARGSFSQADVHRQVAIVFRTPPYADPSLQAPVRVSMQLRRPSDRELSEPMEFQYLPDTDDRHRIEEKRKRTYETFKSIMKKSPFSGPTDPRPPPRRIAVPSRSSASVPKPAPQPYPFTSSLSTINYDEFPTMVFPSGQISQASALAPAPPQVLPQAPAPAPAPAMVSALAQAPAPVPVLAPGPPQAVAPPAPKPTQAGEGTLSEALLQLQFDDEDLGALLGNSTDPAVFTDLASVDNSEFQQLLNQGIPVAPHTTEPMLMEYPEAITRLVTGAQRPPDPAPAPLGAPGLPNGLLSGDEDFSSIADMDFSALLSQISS

Rel-B = target: T2, Rel-B (UniProt Q01201 1-579); experiment: Strep-Tactin pull-down of one-strep-IRF5-HA from formaldehyde-cross-linked HEK-293 cells, immunoblot
T2 construct: Endogenous protein in HEK-293 lysate, probed by immunoblot
T2 sequence (looked up): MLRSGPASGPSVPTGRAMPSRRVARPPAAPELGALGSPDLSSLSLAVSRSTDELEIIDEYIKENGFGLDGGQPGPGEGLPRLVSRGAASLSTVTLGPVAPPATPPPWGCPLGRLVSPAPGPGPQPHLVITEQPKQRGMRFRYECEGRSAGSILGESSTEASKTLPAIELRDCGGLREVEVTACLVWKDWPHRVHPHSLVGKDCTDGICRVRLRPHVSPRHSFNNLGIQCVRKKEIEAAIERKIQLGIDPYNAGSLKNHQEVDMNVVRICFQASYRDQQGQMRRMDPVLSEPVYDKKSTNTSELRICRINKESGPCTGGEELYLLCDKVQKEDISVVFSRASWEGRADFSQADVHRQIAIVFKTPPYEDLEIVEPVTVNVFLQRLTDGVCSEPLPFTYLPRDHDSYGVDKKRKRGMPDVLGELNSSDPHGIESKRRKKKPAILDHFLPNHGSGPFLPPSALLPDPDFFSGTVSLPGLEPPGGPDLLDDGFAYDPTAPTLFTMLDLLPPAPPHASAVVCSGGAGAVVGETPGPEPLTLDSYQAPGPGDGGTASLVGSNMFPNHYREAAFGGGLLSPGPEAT
Method: (§1) HEK-293-TLR4-CD14/Md2 cells were transfected with onestrep-IRF5-HA construct or corresponding empty vector. 24 hrs post transfection cells were fixed with 1% formaldehyde for 10 minutes at room temperature prior to high salt lysis and affinity purification on Strep-Tactin MacroPrep sepharose (IBA). The eluates were de-crosslinked by incubating at 65° C. overnight prior to separation by SDS-PAGE. Exogenous IRF5 and endogenous RelA were detected by immunoblotting with anti-HA-HRP (12013819001, Roche) and anti-RelA (sc-372, Santa-Cruz, US). Alternatively, cells were transfected with RelA-FLAG or BAP-FLAG control protein. 24 hrs post transfection cells were lysed and affinity purified with anti-FLAG M2 sepharose beads (Sigma, UK). Exogenous RelA and endogenous IRF5 were detected by immunoblotting with anti-FLAG-HRP (A8592, Sigma, UK) and anti-IRF5 (Abcam, UK). Interaction of endogenous RelA and IRF5 was detected by overnight incubation of the cell lysates with goat anti-IRF5 antibody (ab2932, Abcam, UK) or no antibody control prior to precipitation with protein G beads. IRF5 was detected by immunoblotting with mouse anti-IRF5 antibody (sc-56714, Santa-Cruz, USA) while RelA—by immunoblotting with anti-RelA. Triton X-100 extracted nuclei and DNase I digestion of chromatin was performed as described previously¹⁷.
(§2) IRF5 with an N-terminal one-strep tag and a C-terminal HA tag was expressed in HEK-293 cells. […] To determine whether this interaction was specific, we immunoblotted for other NE-κB family members: Rel-B, c-Rel, p50 and p52, or a control protein tubulin. […] Furthermore we conducted a complementary experiment, in which human RelA containing C-terminal FLAG tag was expressed in HEK-293 cells and immunoprecipitated in the absence of a cross-linking agents on anti-FLAG sepharose. Specific interactions between ectopically expressed RelA and endogenous IRF5 were observed. No interaction was detected between a control FLAG-tagged bacterial alkaline phosphatase (BAP) and IRF5 (FIG. 24B, compare lanes 1 and 2).

c-Rel = target: T3, c-Rel (UniProt Q04864 2-619, limits assumed); experiment: as above
T3 construct: Endogenous protein in HEK-293 lysate, probed by immunoblot
T3 sequence (looked up): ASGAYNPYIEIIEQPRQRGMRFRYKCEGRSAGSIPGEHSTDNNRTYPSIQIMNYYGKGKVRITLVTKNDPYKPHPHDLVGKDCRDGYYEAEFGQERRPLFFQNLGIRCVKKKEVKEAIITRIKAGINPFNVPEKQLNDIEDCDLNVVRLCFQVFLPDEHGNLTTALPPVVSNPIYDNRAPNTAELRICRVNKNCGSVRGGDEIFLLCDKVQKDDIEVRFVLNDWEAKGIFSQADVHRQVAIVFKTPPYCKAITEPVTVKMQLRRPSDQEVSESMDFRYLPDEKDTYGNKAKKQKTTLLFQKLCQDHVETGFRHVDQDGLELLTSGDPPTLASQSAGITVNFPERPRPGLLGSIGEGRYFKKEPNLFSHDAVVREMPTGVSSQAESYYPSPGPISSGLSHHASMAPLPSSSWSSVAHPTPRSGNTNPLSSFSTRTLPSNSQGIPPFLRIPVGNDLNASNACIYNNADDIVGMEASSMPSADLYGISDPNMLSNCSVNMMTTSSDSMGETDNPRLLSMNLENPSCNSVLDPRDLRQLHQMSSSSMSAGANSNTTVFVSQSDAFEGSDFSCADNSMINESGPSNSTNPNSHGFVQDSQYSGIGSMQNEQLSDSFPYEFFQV
Method: as §1, §2

[2] = target: B2; experiment: as above
Method: as §1, §2

IRF5 DBD (aa 1-131) [3] = target: T4, IRF5 DBD (aa 1-131) (Homo sapiens, UniProt Q13568 SEQ:1-131); experiment: EMSA; 50 ng IRF5 DBD; ISRE 1/2 said to interact in vitro; details: tags: expressed from pET21d in bacteria; label: 32P (dCTP fill-in); 5' agct overhangs
Method: (§3) (A) Recombinant purified IRF5-DBD was used in an EMSA with radioactive probe corresponding to the selected ISRE and κB sites. PRDI-III (IFN-˜ promoter) was used as a positive control.
(§4) Binding reactions with 50 ng of bacterially expressed and purified IRF5 DBD and EMSA gel separation were performed as previously described⁵.

IRF5 DBD (aa 1-131) [4] = target: T4, IRF5 DBD (aa 1-131); experiment: EMSA; 50 ng IRF5 DBD; details: tags: expressed from pET21d in bacteria; label: 32P (dCTP fill-in); 5' agct overhangs
Method: as §3, §4

IRF5 DBD (aa 1-131) [5] = target: T4, IRF5 DBD (aa 1-131); experiment: EMSA; non-consensus ISRE; details: tags: expressed from pET21d in bacteria; label: 32P (dCTP fill-in); 5' agct overhangs
Method: as §3, §4

B1: One-Strep-IRF5 fusion protein (other)
chain: MNQSIPVAPTPPRRVRLKPWLVAQVNSCQYPGLQWVNGEKKLFCIPWRHATRHGPSQDGDNTIFKAWAKETGKYTEGVDEADPAKWKANLRCALNKSRDFRLIYDGPRDMPPQPYKIYEVCSNGPAPTDSQPPEDYSFGAGEEEEEEEELQRMLPSLSLTEDVKWPPTLQPPTLQPPVVLGPPAPDPSPLAPPPGNPAGFRELLSEVLEPGPLPASLPPAGEQLLPDLLISPHMLPLTDLEIKFQYRGRPPRALTISNPHGCRLFYSQLEATQEQVELFGPISLEQVRFPSPEDIPSDKQRFYTNQLLDVLDRGLILQLQGQDLYAIRLCQCKVFWSGPCASAHDSCPNPIQREVKTKLFSLEHFLNELILFQKGQTNTPPPFEIFFCFGEEWPDRKPREKKLITVQVVPVAARLLLEMFSGELSWSADSIRLQISNPDLKDRMVEQFKELHHIWQSQQRLQPVAQAPPGAGLGVGQGPWPMHPAGMQ
notes: also called full-length IRF5 (One-Strep bait); not shown: One-Strep tag
binding result [1]: binds

B2
binding result (Rel-B): no binding
binding result (c-Rel): no binding

B3: p50 (other, UniProt P19838 1-433, looked up)
chain: MAEDDPYLGRPEQMFHLDPSLTHTIFNPEVFQPQMALPTDGPYLQILEQPKQRGFRFRYVCEGPSHGGLPGASSEKNKKSYPQVKICNYVGPAKVIVQLVTNGKNIHLHAHSLVGKHCEDGICTVTAGPKDMVVGFANLGILHVTKKKVFETLEARMTEACIRGYNPGLLVHPDLAYLQAEGGGDRQLGDREKELIRQAALQQTKEMDLSVVRLMFTAFLPDSTGSFTRRLEPVVSDAIYDSKAPNASNLKIVRMDRTAGCVTGGEEIYLLCDKVQKDDIQIRFYEEEENGGVWEGFGDFSPTDVHRQFAIVFKTPKYKDINITKPASVFVQLRRKSDLETSEPKPFLYYPEIKDKEEVQRKRQKLMPNFSDSFGGGSGAGAGGGGMFGSGGGGGGTGSTGPGYSFPHYGFPTYGGITFHPGTTKSNAGMKHG
notes: Endogenous protein in HEK-293 lysate, probed by immunoblot; also called NF-kB p50
binding result [2]: no binding

B4: p52 (other, UniProt Q00653 1-454, looked up)
chain: MESCYNPGLDGIIEYDDFKLNSSIVEPKEPAPETADGPYLVIVEQPKQRGFRFRYGCEGPSHGGLPGASSEKGRKTYPTVKICNYEGPAKIEVDLVTHSDPPRAHAHSLVGKQCSELGICAVSVGPKDMTAQFNNLGVLHVTKKNMMGTMIQKLQRQRLRSRPQGLTEAEQRELEQEAKELKKVMDLSIVRLRFSAFLRASDGSFSLPLKPVISQPIHDSKSPGASNLKISRMDKTAGSVRGGDEVYLLCDKVQKDDIEVRFYEDDENGWQAFGDFSPTDVHKQYAIVFRTPPYHKMKIERPVTVFLQLKRKRGGDVSDSKQFTYYPLVEDKEEVQRKRRKALPTFSQPFGGGSHMGGGSGGAAGGYGGAGGGGSLGFFPSSLAYSPYQSGAGPMGCYPGGGGGAQMAATVPSRDSGEEAAEPSAPSRTPQCEPQAPEMLQRAREYNARLFGLA
notes: Endogenous protein in HEK-293 lysate, probed by immunoblot; also called NF-kB p52
binding result [2]: no binding

B5: TNF ISRE1 (dsDNA)
DNA 1: AGCTGAAGCCAAGACTGAAACCAGCATTA
DNA 2: AGCTTAATGCTGGTTTCAGTCTTGGCTTC
binding result (IRF5 DBD (aa 1-131) [3]): binds

B6: TNF kB4a (dsDNA)
DNA 1: AGCTAACTCTGGGAATTCCAATCCTT
DNA 2: AGCTAAGGATTGGAATTCCCAGAGTT
binding result (IRF5 DBD (aa 1-131) [4]): no binding

B7: TNF kB4b (dsDNA)
DNA 1: AGCTCTTGCTGGGAAAATCCTGCAG
DNA 2: AGCTGCTGCAGGATTTTCCCAGCAAG
binding result (IRF5 DBD (aa 1-131) [4]): no binding

B8: TNF 'ISRE'16 (dsDNA)
DNA 1: AGCTTTTGCTTAGAAAAGAAACATGGTCTC
DNA 2: AGCTGAGACCATGTTTCTTTTCTAAGCAAA
binding result (IRF5 DBD (aa 1-131) [5]): no binding

B9: TNF 'ISRE'17 (dsDNA)
DNA 1: AGCTACATAAACAAAGCCCAACAGAATATTCC
DNA 2: AGCTGGAATATTCTGTTGGGCTTTGTTTATGT
binding result (IRF5 DBD (aa 1-131) [5]): no binding
